Test results from paper PMC12232886, “Multiple and Alternative Sites Make Tau Protein an Adaptable Sticky Surface for the SH3 Domain of Fyn Kinase” (Angewandte Chemie (International Ed. in English), 2025).
Where two headings read alike, the source gives them in different places.

Target: T1, Fyn-SH3 (Homo sapiens, UniProt P06241)
T1 construct: 82-143) was cloned into the pET-TEV; His-tag (TEV-cleavable, pET-TEV vector) (N, cleaved yes); made in house; host or cells: E. coli BL21(DE3)
Test: Isothermal titration calorimetry (ITC), Fyn-SH3 titrated into Tau fragments
Type: binding
Settings: 20 mM potassium phosphate pH 6.8, 25 °C, error from data fitting
From the text: Figure 3 ITC analysis of Fyn‐SH3 binding to Tau. ITC measurements of Fyn‐SH3 titrated into Tau fragments 151–372 (a), 151–243 (b), 151–372 Δ175–179 (c), 151–372 Δ215–219 (d), 151–372 Δ175–179 Δ215–219 (e). The upper and lower panels show the raw thermograms (DP, differential power), and the integrated heats corrected for the heat of dilution (ΔH), respectively. The blue line in the latter panels represents the fit curve. […]
Isothermal Titration Calorimetry (ITC)
For ITC measurements, purified Fyn-SH3 and Tau proteins were dialyzed overnight against 20 mM potassium phosphate buffer (pH 6.8). Concentrations of proteins were measured using a NanoDrop instrument (Thermo Fisher Scientific), by using molar extinction coefficients at 280 nm. Calorimetric titrations were carried out on a MicroCal PEAQ-ITC instrument (Malvern) at 25 °C. The sample cell contained 20 μM Tau protein and the injection syringe 0.6 mM or 1 mM solution of Fyn-SH3. Only for the Tau mutant 151-372 Δ175-179 Δ215-219, the experiment was conducted with 60 μM Tau protein in the cell and 1.2 mM SH3 in the syringe. Titrations were carried out with a preliminary 0.4 μl injection, followed by 2 μl injections with time intervals of 150 sec, with stirring rate of 500 rpm and reference power of 10 μcal/sec. A blank titration (ligand into buffer) was recorded in the same experimental conditions and the dilution heats were subtracted to the data.
Binding isotherms were analyzed with the MicroCal PEAQ-ITC analysis software, using the two-sets of sites or the one-set of sites fitting models. […]

[1] = one-set of sites model, 20 μM Tau in cell, 0.6 mM or 1 mM SH3 in syringe, read-out: Kd

T1 sequence (P06241 82-143): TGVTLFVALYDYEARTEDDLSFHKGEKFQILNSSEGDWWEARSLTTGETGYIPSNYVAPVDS

## Tau 151–243: recombinant Tau fragment 151-243 lacking the HSPR3 and the MBD
[1]
  Kd: ~12 µM

## Tau 151–372 Δ175‐179: Tau 151-372 deletion mutant lacking the PxxP motifs in HSPR1
one-set of sites model, 20 μM Tau in cell, 0.6 mM or 1 mM SH3 in syringe, listed as Δ175–179, read-out: Kd
  Kd: 12 µM
[1]
  Kd: 12.2 ± 5.4 µM

## Tau 151–372 Δ215‐219: Tau 151-372 deletion mutant lacking the PxxP motifs in HSPR2
one-set of sites model, 20 μM Tau in cell, 0.6 mM or 1 mM SH3 in syringe, listed as Tau 151–372 Δ215–219, read-out: Kd
  Kd: ~12 µM
one-set of sites model, 20 μM Tau in cell, 0.6 mM or 1 mM SH3 in syringe, listed as Δ215–219, read-out: Kd
  Kd: 13 µM
[1]
  Kd: 12.7 ± 4.4 µM

## Tau 151–372: recombinant Tau fragment 151-372, his-tag cleaved, containing all three HSPRs
two-sets of sites model, site I, 20 μM Tau in cell, 0.6 mM or 1 mM SH3 in syringe, read-out: KdI
  Kd: 2.5 ± 1.1 µM
two-sets of sites model, site II, 20 μM Tau in cell, 0.6 mM or 1 mM SH3 in syringe, listed as Tau151‐372, read-out: KdII
  Kd: 38 µM
two-sets of sites model, site II, 20 μM Tau in cell, 0.6 mM or 1 mM SH3 in syringe, read-out: KdII
  Kd: 37.6 ± 22.7 µM

## Tau 151–372 Δ175‐179 Δ215‐219: Tau 151-372 double deletion mutant lacking the PxxP motifs in HSPR1 and HSPR2
two-sets of sites model, site I, 60 μM Tau in cell, 1.2 mM SH3 in syringe, listed as Δ175–179 Δ215–219, read-out: KdI
  Kd: 10 µM
two-sets of sites model, site I, 60 μM Tau in cell, 1.2 mM SH3 in syringe, read-out: KdI
  Kd: 10.3 ± 2.2 µM
two-sets of sites model, site II, 60 μM Tau in cell, 1.2 mM SH3 in syringe, read-out: KdII
  Kd: 347 ± 79 µM
